The target in this assay is T1, asia_bpt4 asiA (UniProt P32267).
T1 sequence: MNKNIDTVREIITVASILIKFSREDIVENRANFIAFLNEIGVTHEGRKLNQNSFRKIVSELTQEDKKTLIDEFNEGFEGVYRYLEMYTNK

With “DNA-directed RNA polymerase subunit beta (Escherichia coli (strain K12)) (from UniProt P0A8V2) G907K”, the “effect of a mutation on the interaction” value is reported as “decreasing interaction strength”. The entry for “DNA-directed RNA polymerase subunit beta (Escherichia coli (strain K12)) (from UniProt P0A8V2) I905A;F906A” is “decreasing interaction strength”.
